Patent US10772928B2, “Modulation and detection of a neuronal alternative splicing regulatory network for treatment and diagnosis of neurological disorders” (The Governing Council of the University of Toronto, priority 2014, dated 2020)

T1: nSR100 (Mus musculus, UniProt Q8BKA3)
T1 construct: host or cells: mouse N2A cells
T1 sequence (Q8BKA3 1-608): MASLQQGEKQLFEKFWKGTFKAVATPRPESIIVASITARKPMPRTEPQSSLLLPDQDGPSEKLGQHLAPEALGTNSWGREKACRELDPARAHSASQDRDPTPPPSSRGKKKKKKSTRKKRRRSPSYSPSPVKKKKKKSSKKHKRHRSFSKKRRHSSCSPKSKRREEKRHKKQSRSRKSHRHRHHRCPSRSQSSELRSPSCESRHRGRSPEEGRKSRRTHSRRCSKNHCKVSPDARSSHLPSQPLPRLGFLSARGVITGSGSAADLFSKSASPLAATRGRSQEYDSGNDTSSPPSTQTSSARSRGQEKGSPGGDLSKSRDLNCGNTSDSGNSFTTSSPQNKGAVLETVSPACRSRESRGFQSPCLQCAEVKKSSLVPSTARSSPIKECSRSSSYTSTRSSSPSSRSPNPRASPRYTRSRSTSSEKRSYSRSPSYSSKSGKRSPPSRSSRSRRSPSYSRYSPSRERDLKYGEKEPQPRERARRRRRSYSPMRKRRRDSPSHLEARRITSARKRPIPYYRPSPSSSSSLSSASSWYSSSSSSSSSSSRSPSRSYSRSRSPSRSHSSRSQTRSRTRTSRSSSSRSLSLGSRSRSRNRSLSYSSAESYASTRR

B1: Sf1 (protein, UniProt Q64213 2-653, looked up)
Splicing factor 1: ATGANATPLDFPSKKRKRSRWNQDTMEQKTVIPGMPTVIPPGLTREQERAYIVQLQIEDLTRKLRTGDLGIPPNPEDRSPSPEPIYNSEGKRLNTREFRTRKKLEEERHTLITEMVALNPDFKPPADYKPPATRVSDKVMIPQDEYPEINFVGLLIGPRGNTLKNIEKECNAKIMIRGKGSVKEGKVGRKDGQMLPGEDEPLHALVTANTMENVKKAVEQIRNILKQGIETPEDQNDLRKMQLRELARLNGTLREDDNRILRPWQSSETRSITNTTVCTKCGGAGHIASDCKFQRPGDPQSAQDKARMDKEYLSLMAELGEAPVPASVGSTSGPATTPLASAPRPAAPASNPPPPSLMSTTQSRPPWMNSGPSENRPYHGMHGGGPGGPGGGPHSFPHPLPSLTGGHGGHPMQHNPNGPPPPWMQPPPPPMNQGPHPPGHHGPPPMDQYLGSTPVGSGVYRLHQGKGMMPPPPMGMMPPPPPPPSGQPPPPPSGPLPPWQQQQQQPPPPPPPSSSMASSTPLPWQQNTTTTTTSAGTGSIPPWQQQQAAAAASPGTPQMQGNPTMVPLPPGVQPPLPPGAPPPPPCSIECLLCLLSSPNSLCLSPNRAARIPPRGSDGPSHESEDFPRPLVTLPGRQPQQRPWWTGWFGKAA
B2: Sf3b1 (protein, UniProt Q99NB9 1-1304, looked up)
Splicing factor 3B subunit 1: MAKIAKTHEDIEAQIREIQGKKAALDEAQGVGLDSTGYYDQEIYGGSDSRFAGYVTSIAATELEDDDDDYSSSTSLLGQKKPGYHAPVALLNDIPQSTEQYDPFAEHRPPKIADREDEYKKHRRTMIISPERLDPFADGGKTPDPKMNARTYMDVMREQHLTKEEREIRQQLAEKAKAGELKVVNGAAASQPPSKRKRRWDQTADQTPGATPKKLSSWDQAETPGHTPSLRWDETPGRAKGSETPGATPGSKIWDPTPSHTPAGAATPGRGDTPGHATPGHGGATSSARKNRWDETPKTERDTPGHGSGWAETPRTDRGGDSIGETPTPGASKRKSRWDETPASQMGGSTPVLTPGKTPIGTPAMNMATPTPGHIMSMTPEQLQAWRWEREIDERNRPLSDEELDAMFPEGYKVLPPPAGYVPIRTPARKLTATPTPLGGMTGFHMQTEDRTMKSVNDQPSGNLPFLKPDDIQYFDKLLVDVDESTLSPEEQKERKIMKLLLKIKNGTPPMRKAALRQITDKAREFGAGPLFNQILPLLMSPTLEDQERHLLVKVIDRILYKLDDLVRPYVHKILVVIEPLLIDEDYYARVEGREIISNLAKAAGLATMISTMRPDIDNMDEYVRNTTARAFAVVASALGIPSLLPFLKAVCKSKKSWQARHTGIKIVQQIAILMGCAILPHLRSLVEIIEHGLVDEQQKVRTISALAIAALAEAATPYGIESFDSVLKPLWKGIRQHRGKGLAAFLKAIGYLIPLMDAEYANYYTREVMLILIREFQSPDEEMKKIVLKVVKQCCGTDGVEANYIKTEILPPFFKHFWQHRMALDRRNYRQLVDTTVELANKVGAAEIISRIVDDLKDEAEQYRKMVMETIEKIMGNLGAADIDHKLEEQLIDGILYAFQEQTTEDSVMLNGFGTVVNALGKRVKPYLPQICGTVLWRLNNKSAKVRQQAADLISRTAVVMKTCQEEKLMGHLGVVLYEYLGEEYPEVLGSILGALKAIVNVIGMHKMTPPIKDLLPRLTPILKNRHEKVQENCIDLVGRIADRGAEYVSAREWMRICFELLELLKAHKKAIRRATVNTFGYIAKAIGPHDVLATLLNNLKVQERQNRVCTTVAIAIVAETCSPFTVLPALMNEYRVPELNVQNGVLKSLSFLFEYIGEMGKDYIYAVTPLLEDALMDRDLVHRQTASAVVQHMSLGVYGFGCEDSLNHLLNYVWPNVFETSPHVIQAVMGALEGLRVAIGPCRMLQYCLQGLFHPARKVRDVYWKIYNSIYIGSQDALIAHYPRIYNDDKNTYIRYDLDYIL
B3: Wdr6 (protein, UniProt Q99ME2 1-1125, looked up)
tRNA …: MDAFGDYVWPRATSELILLPVTGLECVGDRLLAGEGPDLLVYNLDLGGHLRMVKRVQNLLGHFLIHGFRVRPEPKGDLDSEAMIAVFGSKGLKVVKVSWGQSHLRELWRSGLWNMSDWIWDVRWIEGNVAVALGHNSVVLYDPVIGCMLQDVPCTDRCTLSSACLVGDTWKELTIVAGAVSNELLIWYPATALTDNKPVAPDRRVSGHVGVIFSMSYLESKGLLATASEDRSVRLWKVGDLRVPGGRVQNIGHCFGHSARVWQVKLLENYLISAGEDCVCLVWSHEGEILQAFRGHRGRGIRAIATHERQAWVVTGGDDSGIRLWHLAGRGYPGLGVSSLSFKSPSRPGALKAVTLAGSWRVLAVTDVGSLYLYDLEVKSWEQLLEDNRFRSYCLLEAAPGPEGFGLCALANGEGLVKVVPINTPTAAVEQKLFQGKVHSLSWALRGYEELLLLASGPGGVIACLEISAAPTGKAIFVKERCRYLLPPSKQRWHTCSAFLPPGDFLVCGDRRGSVMLFPVRPCLFKKPGAGSKAITAAEAPGAGSGSGGSESVPTGIGPVSTLHSLHGKQGVTSVTCHGGYLYSTGRDSSYFQLFVHGGHLQPVLRQKACRGMNWVAGLRMVPDGSMVILGFHANEFVVWSPRSHEKLHIVNCGGGHRSWAFSDTEAAMAFTYLKDGEVMLYRALGGCIRPNVILREGLHGREITCVKRVGTVTLGPEFEVPNLEHPDSLEPGSEGPGLIDIVITGSEDTTVCVLALPTTTGSAHALTSVCNHISSVRALAVWAVGTPGGPQDTRPGLTAQVVSAGGRAEIHCFSVMVTPDASTPSRLACHVMHLSSHRLDEYWDRQRNKHKMIKVDPETRYMSLAICELDNDRPGLGPGPLVAAACSDGAVRLFLLQDSGRILHLLAESFHHKRCVLKVHSFTHEAPNQRRRLILCSAATDGSLAFWDLTTAMDKGSTTLELPAHPGLPYQMGTPSMTVQAHSCGVNSLHTLPTPEGHHLVASGSEDGSLHVFTLAVKMPEPEEADGEAELVPQLCVLEEYSVPCAHAAHVTGVKILSPKLMVSASIDQRLTFWRLGQGEPTFMNSTVYHVPDVADMDCWPVSPEFGHRCALAGQGLEVYNWYD
B4: Prpf4b (protein, UniProt Q61136 2-1007, looked up)
Serine/threonine-protein …: AATEPPSLREQAEMDDADNSEKSVNEENGEVSEDQSQNKHSRHKKKKHKHRSKHKKHKHSSEEDRDKKHKHKHKHKKHKRKEVIEASDKEGLSPAKRTKLDDLALLEDLEKQRALIKAELDNELMEGKVQSGMGLILQGYESGSEEEGEIHEKARNGNRSSTRSSSTRGKLEITDNKNSAKKRSKSRSKERTRHRSDKRKSKGAGEMLREKANRSKSKERRKSKSPSKRSKSQDQARKSKSPPLRRRSQEKVGKARSPAEEKMKSEEKGKIKDRKKSPIVNERSRDRSKKSKSPVDLRDKSKDRRSRSKERKSKRSEIDKEKKPIKSPSKDASSGKENRSPSRRPGRSPKRRSLSPKLRDKSRRSRSPLLNDRRSKQSKSPSRTLSPGRRAKSRSLERKRREPERRRLSSPRTRPRDDILGRCERSKDASPINRWSPTRRRSRSPIRRRSRSPLRRSRSPRRRSRSPRRRDRSRRSRSRLRRRSRSRGGHRRRSRSKVKEDKFKGSLSEGMKVEQESSSDDNLEDFDVEEEDEEALIEQRRIQRQAIVQKYKYLAEDSNISVPSEPSSPQSSTRSRSPSPDDILERVAADVKEYERENVDTFEASVKAKHNLMTVEQNNGSSQKKILAPDMFTESDDMFAAYFDSARLRAAGIGKDFKENPNLRDNWTDAEGYYRVNIGEVLDKRYNVYGYTGQGVFSNVVRARDNARANQEVAVKIIRNNELMQKTGLKELEFLKKLNDADPDDKFHCLRLFRHFYHKQHLCLVFEPLSMNLREVLKKYGKDVGLHIKAVRSYSQQLFLALKLLKRCNILHADIKPDNILVNESKTILKLCDFGSASHVADNDITPYLVSRFYRAPEIIIGKSYDYGIDMWSVGCTLYELYTGKILFPGKTNNHMLKLAMDLKGKMPNKMIRKGVFKDQHFDQNLNFMYIEVDKVTEREKVTVMSTINPTKDLLADLIGCQRLPEDQRKKVHQLKDLLDQILMLDPAKRISINQALQHAFIQEKI

Target: T1, nSR100
Assay: AP-MS nSR100 interaction partners from mouse N2A cells (Table 5)
Type: binding
Settings: for AvgP (average of the SAINT scores) / MaxP (maximal SAINT score): bait Srrm4; for FoldChange between the prey Avg spectra of the bait and control purifications: bait Srrm4, 0.1 added to prevent division by 0; for AvgSpec (average number of spectra per replicate): bait Srrm4, 2 replicates; for Spectra (number of spectra for the prey in the purification of the bait): AP-MS; for SpecSum: bait Srrm4, sum of spectra over 2 replicates
[1] = bait Srrm4, biological replicate 1 (first number of the cell)
[2] = bait Srrm4, biological replicate 2 (second number of the cell)

Description: By applying affinity purification coupled to mass-spectrometry (AP-MS), several interaction nSR100 partner proteins were detected that provide insight into mechanisms of post-translational regulation of nSR100 levels.

AvgP (average of the SAINT scores)	MaxP (maximal SAINT score)	FoldChange between the prey Avg spectra of the bait and control purifications	AvgSpec (average number of spectra per replicate)	Spectra (number of spectra for the prey in the purification of the bait) [1]	Spectra (number of spectra for the prey in the purification of the bait) [2]	SpecSum	Molecule
1	1	11.92	71.5	70	73	143	B1
1	1	3.45	112	92	132	224	B2
1	1	160	16	13	19	32	B3
1	1	45	4.5	4	5	9	B4
